Biological target: the molecule itself
Experiment: cryo-EM structure

B1: AND-1 (natural protein, H. sapiens, UniProt O75717 1-1129, looked up)
chain: MPATRKPMRYGHTEGHTEVCFDDSGSFIVTCGSDGDVRIWEDLDDDDPKFINVGEKAYSCALKSGKLVTAVSNNTIQVHTFPEGVPDGILTRFTTNANHVVFNGDGTKIAAGSSDFLVKIVDVMDSSQQKTFRGHDAPVLSLSFDPKDIFLASASCDGSVRVWQISDQTCAISWPLLQKCNDVINAKSICRLAWQPKSGKLLAIPVEKSVKLYRRESWSHQFDLSDNFISQTLNIVTWSPCGQYLAAGSINGLIIVWNVETKDCMERVKHEKGYAICGLAWHPTCGRISYTDAEGNLGLLENVCDPSGKTSSSKVSSRVEKDYNDLFDGDDMSNAGDFLNDNAVEIPSFSKGIINDDEDDEDLMMASGRPRQRSHILEDDENSVDISMLKTGSSLLKEEEEDGQEGSIHNLPLVTSQRPFYDGPMPTPRQKPFQSGSTPLHLTHRFMVWNSIGIIRCYNDEQDNAIDVEFHDTSIHHATHLSNTLNYTIADLSHEAILLACESTDELASKLHCLHFSSWDSSKEWIIDLPQNEDIEAICLGQGWAAAATSALLLRLFTIGGVQKEVFSLAGPVVSMAGHGEQLFIVYHRGTGFDGDQCLGVQLLELGKKKKQILHGDPLPLTRKSYLAWIGFSAEGTPCYVDSEGIVRMLNRGLGNTWTPICNTREHCKGKSDHYWVVGIHENPQQLRCIPCKGSRFPPTLPRPAVAILSFKLPYCQIATEKGQMEEQFWRSVIFHNHLDYLAKNGYEYEESTKNQATKEQQELLMKMLALSCKLEREFRCVELADLMTQNAVNLAIKYASRSRKLILAQKLSELAVEKAAELTATQVEEEEEEEDFRKKLNAGYSNTATEWSQPRFRNQVEEDAEDSGEADDEEKPEIHKPGQNSFSKSTNSSDVSAKSGAVTFSSQGRVNPFKVSASSKEPAMSMNSARSTNILDNMGKSSKKSTALSRTTNNEKSPIIKPLIPKPKPKQASAASYFQKRNSQTNKTEEVKEENLKNVLSETPAICPPQNTENQRPKTGFQMWLEENRSNILSDNPDFSDEADIIKEGMIRFRVLSTEERKVWANKAKGETASEGTEAKKRKRVVDESDETENQEEKAKENLNLSKKQKPLDFSTNQKLSAFAFKQE
With B1 the “stoichiometry N” value was 3.
